According to paper PMC6056499 (2018):

Key:
[1] = biological target: T1, human β-Klotho extracellular domain (aa1–992) fused with a 6 × His tag at the C-terminus (human, UniProt Q86Z14 1-992, biotin (EZ-Link Sulfo-NHS-LC-Biotin) in the bio-layer interferometry); experiment: competition with FGF19 (AlphaScreen)
[2] = biological target: T1, human β-Klotho extracellular domain …; experiment: AlphaScreen, competition with FGF21
[3] = biological target: T1, human β-Klotho extracellular domain …; experiment: AlphaScreen, competition with FGF19
[4] = biological target: T1, human β-Klotho extracellular domain …; experiment: competition with FGF21 (AlphaScreen)
[5] = biological target: T1, human β-Klotho extracellular domain …; experiment: BLI
[6] = biological target: T1, human β-Klotho extracellular domain …; experiment: ELISA; solid-phase binding assay
[7] = biological target: T1, human β-Klotho extracellular domain …; experiment: AlphaScreen, biotinylated FGF

T1 sequence (Q86Z14 53-992): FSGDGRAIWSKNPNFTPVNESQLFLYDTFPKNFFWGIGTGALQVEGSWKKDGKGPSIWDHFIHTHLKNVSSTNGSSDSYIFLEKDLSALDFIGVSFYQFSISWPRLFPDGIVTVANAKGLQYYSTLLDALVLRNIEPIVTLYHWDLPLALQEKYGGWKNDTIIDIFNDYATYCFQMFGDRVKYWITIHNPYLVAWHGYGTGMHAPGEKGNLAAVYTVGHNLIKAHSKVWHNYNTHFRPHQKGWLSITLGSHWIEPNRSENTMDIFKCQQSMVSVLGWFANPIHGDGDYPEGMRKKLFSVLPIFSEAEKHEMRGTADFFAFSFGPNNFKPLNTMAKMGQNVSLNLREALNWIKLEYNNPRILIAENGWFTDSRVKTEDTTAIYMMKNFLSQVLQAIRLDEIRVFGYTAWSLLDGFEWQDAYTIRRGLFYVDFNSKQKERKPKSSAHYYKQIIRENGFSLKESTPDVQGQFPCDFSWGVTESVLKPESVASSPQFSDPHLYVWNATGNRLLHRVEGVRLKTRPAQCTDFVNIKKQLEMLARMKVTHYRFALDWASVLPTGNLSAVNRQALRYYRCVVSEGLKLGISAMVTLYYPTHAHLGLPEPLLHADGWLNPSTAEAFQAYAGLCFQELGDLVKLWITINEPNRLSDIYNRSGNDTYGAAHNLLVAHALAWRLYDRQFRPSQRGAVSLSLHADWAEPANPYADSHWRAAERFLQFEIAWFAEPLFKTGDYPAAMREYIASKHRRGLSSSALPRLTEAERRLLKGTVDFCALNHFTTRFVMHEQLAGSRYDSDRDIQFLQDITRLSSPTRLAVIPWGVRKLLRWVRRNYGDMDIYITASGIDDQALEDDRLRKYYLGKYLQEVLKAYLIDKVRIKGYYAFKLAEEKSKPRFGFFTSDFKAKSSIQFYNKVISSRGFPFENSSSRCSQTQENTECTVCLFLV

| Binder | IC50 [1] [nM] | IC50 [4] [nM] | other results |
| --- | --- | --- | --- |
| PQPPDVGSSDPLSMVGPSQGASPSYAS [FGF21 183-209 203R-A] | 0.28 |  |  |
| SDMFSSPLETDSMDPFGLVTGLEAVRSPSFEK [FGF19 C-terminal peptide, WT FGF19^185–216] |  |  | IC50 [2]: 346 nM; IC50 [3]: 46.7 nM |
| AQPPDVGSSDPLSMVGPSQGRSPSYAS [FGF21 183-209 183P-A] | 1 | 4.5 |  |
| PQPPDVGSSDPLSMVGPSQGRSPSYAS [FGF21 183-209] | 0.52 | 2.1 |  |
| PQPPDAGSSDPLSMVGPSQGRSPSYAS [FGF21 183-209 188V-A] | 5.2 |  |  |
| PQPPDVGSSDPLSMVAPSQGRSPSYAS [FGF21 183-209 198G-A] | 2.6 | 6 |  |
| mature human FGF21 polypeptide fused with the human Fc fragment at the N-terminus (Fc-FGF21), wild type (Fc fusion) HPIPDSSPLLQFGGQVRQRYLYTDDAQQTEAHLEIREDGTVGGAADQSPESLLQLKALKPGVIQILGVKTSRFLCQRPDGALYGSLHFDPEACSFRELLLEDGYNVYQSEAHGLPLHLPGNKSPHRDPAPRGPARFLPLPGLPPALPEPPGILAPQPPDVGSSDPLSMVGPSQGRSPSYAS |  |  | Kd [5]: 1.36 nM; EC50 [6]: 0.6 nM |
| mature human FGF21 (ligand, biotin (EZ-Link Sulfo-NHS-LC-Biotin) in the solid-phase binding assay; biotinylated as the labelled ligand in AlphaScreen) HPIPDSSPLLQFGGQVRQRYLYTDDAQQTEAHLEIREDGTVGGAADQSPESLLQLKALKPGVIQILGVKTSRFLCQRPDGALYGSLHFDPEACSFRELLLEDGYNVYQSEAHGLPLHLPGNKSPHRDPAPRGPARFLPLPGLPPALPEPPGILAPQPPDVGSSDPLSMVGPSQGRSPSYAS |  |  | Kd [5]: 5.17 nM; IC50 [2]: 23.1 nM; IC50 [3]: 5.7 nM; EC50 [7]: 2.81 nM |
| PQPPDVGSSDALSMVGPSQGRSPSYAS [FGF21 183-209 193P-A] | 5.5 |  |  |
